According to patent US20210171647A1 (WUXI BIOLOGICS SHANGHAI, published 2021):
Substitutions are numbered along the chain they refer to.

What was measured:
Test in all cases: ELISA, antibody coated, OX40-ECD.His mutant supernatant; relative to silent alanine substitutions;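 note: captured OX40 mutant protein detected with HRP-labelled anti-His antibody, absorbance read-out, scaled to the mean signal of control mutants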
human OX40-ECD.His P127A = target: T1, human OX40-ECD.His P127A (human, UniProt P43489 29-214)
T1 construct: extracellular domain; not shown: C-terminal His-tag
T1 sequence (looked up): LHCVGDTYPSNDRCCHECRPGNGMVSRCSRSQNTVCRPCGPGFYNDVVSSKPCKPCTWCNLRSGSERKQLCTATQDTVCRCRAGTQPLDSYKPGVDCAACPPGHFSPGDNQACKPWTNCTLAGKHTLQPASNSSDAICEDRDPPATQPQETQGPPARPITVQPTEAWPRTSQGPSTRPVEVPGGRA

human OX40-ECD.His R58A = target: T2, human OX40-ECD.His R58A (human, UniProt P43489 29-214)
T2 construct: extracellular domain; not shown: C-terminal His-tag
T2 sequence (looked up): T1 sequence (looked up) with R30A, A99P

human OX40-ECD.His L89A = target: T3, human OX40-ECD.His L89A (human, UniProt P43489 29-214)
T3 construct: extracellular domain; not shown: C-terminal His-tag
T3 sequence (looked up): T1 sequence (looked up) with L61A, A99P

human OX40-ECD.His W144A = target: T4, human OX40-ECD.His W144A (human, UniProt P43489 29-214)
T4 construct: extracellular domain; not shown: C-terminal His-tag
T4 sequence (looked up): T1 sequence (looked up) with A99P, W116A

human OX40-ECD.His P48A = target: T5, human OX40-ECD.His P48A (human, UniProt P43489 29-214)
T5 construct: extracellular domain; not shown: C-terminal His-tag
T5 sequence (looked up): T1 sequence (looked up) with P20A, A99P

human OX40-ECD.His F71A = target: T6, human OX40-ECD.His F71A (human, UniProt P43489 29-214)
T6 construct: extracellular domain; not shown: C-terminal His-tag
T6 sequence (looked up): T1 sequence (looked up) with F43A, A99P

human OX40-ECD.His S118A = target: T7, human OX40-ECD.His S118A (human, UniProt P43489 29-214)
T7 construct: extracellular domain; not shown: C-terminal His-tag
T7 sequence (looked up): T1 sequence (looked up) with S90A, A99P

human OX40-ECD.His S57A = target: T8, human OX40-ECD.His S57A (human, UniProt P43489 29-214)
T8 construct: extracellular domain; not shown: C-terminal His-tag
T8 sequence (looked up): T1 sequence (looked up) with S29A, A99P

human OX40-ECD.His T145A = target: T9, human OX40-ECD.His T145A (human, UniProt P43489 29-214)
T9 construct: extracellular domain; not shown: C-terminal His-tag
T9 sequence (looked up): T1 sequence (looked up) with A99P, T117A

human OX40-ECD.His R95A = target: T10, human OX40-ECD.His R95A (human, UniProt P43489 29-214)
T10 construct: extracellular domain; not shown: C-terminal His-tag
T10 sequence (looked up): T1 sequence (looked up) with R67A, A99P

B1: 1.134.9-u1-IgG1L (antibody, V domains shown)
VH: QVQLQESGPGLVKPSGTLSLTCAVSGGSISSYNWWSWVRQPPGKGLEWIGEIYHGGNTNYNPSLKSRVTMSVDNSKNQFSLKLSSVTAADTAVYYCARAPGDWGGSPYFDFWGQGTLVTVSS
VL: SSELTQDPAVSVALGQTVRITCQGDNLRTYYASWYQQKPGQAPILLIYGRNKRPSGIPDRFSGSSSGNTASLTITGAQAEDEAAYYCNSRDSSGNPVVFGGGTKLTVL
notes: fully human IgG1, lambda
- Fold Change (human OX40-ECD.His P127A): 0.953
- Fold Change (human OX40-ECD.His R58A): 1
- Fold Change (human OX40-ECD.His L89A): 0.992
- Fold Change (human OX40-ECD.His W144A): 0.881
- Fold Change (human OX40-ECD.His P48A): 0.981
- Fold Change (human OX40-ECD.His F71A): 0.866
- Fold Change (human OX40-ECD.His S118A): 0.969
- Fold Change (human OX40-ECD.His S57A): 0.963
- Fold Change (human OX40-ECD.His T145A): 0.675
- Fold Change (human OX40-ECD.His R95A): 0.996
